Assay results taken from patent US10357539B2, “Use of peptides that block metadherin-SND1 interaction as treatment for cancer” (THE TRUSTEES OF PRINCETON UNIVERSITY, priority 2014, dated 2019).

Target: T1, MTDH (Mus musculus, UniProt Q80WJ7)
T1 construct: endogenous in cells; host or cells: SND1-KD PyMT;Mtdh+/+ mouse mammary tumor cells
T1 sequence (Q80WJ7 1-579): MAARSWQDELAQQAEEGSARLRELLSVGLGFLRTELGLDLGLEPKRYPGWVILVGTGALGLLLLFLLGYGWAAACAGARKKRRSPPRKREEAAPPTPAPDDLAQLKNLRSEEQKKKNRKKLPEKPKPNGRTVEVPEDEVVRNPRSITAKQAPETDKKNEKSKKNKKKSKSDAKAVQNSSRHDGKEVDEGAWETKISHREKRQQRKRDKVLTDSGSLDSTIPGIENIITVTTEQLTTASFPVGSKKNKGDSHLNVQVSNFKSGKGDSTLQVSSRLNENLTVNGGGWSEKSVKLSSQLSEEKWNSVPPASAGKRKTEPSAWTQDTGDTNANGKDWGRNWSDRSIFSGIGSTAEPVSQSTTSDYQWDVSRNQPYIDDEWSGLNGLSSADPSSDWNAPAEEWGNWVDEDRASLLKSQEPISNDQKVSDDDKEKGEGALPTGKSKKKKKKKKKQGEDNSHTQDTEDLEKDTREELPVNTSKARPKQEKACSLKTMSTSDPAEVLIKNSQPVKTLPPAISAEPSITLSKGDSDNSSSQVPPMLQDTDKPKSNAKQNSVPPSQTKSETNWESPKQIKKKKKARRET
Assay: Anti-MTDH immunoprecipitation from SND1-KD PyMT;Mtdh+/+ tumor cells reconstituted with murine SND1
Assay type: cell-based
Settings: shRNA-resistant construct in SND1-KD PyMT;Mtdh+/+ tumor cells
Method: (FIG. 24A) Lysates from SND1-KD PyMT;Mtdh+/+ tumor cells reconstituted with vector control, WT or mutant shRNA-resistant murine SND1 were immunoprecipitated with anti-MTDH antibody and immunoblotted for indicated proteins. (FIG. 24B) Mammosphere assays were performed with SND1-KD PyMT;Mtdh+/+ tumor cells reconstituted with vector control or indicated SND1 constructs. (FIG. 24C, FIG. 24D) Mammary tumor incidence (FIG. 24C) and tumor growth curve (FIG. 24D) after orthotopic transplantations of SND1-KD PyMT;Mtdh+/+ tumor cells reconstituted with indicated constructs. Statistics: (FIG. 24B, FIG. 24D) Student's t-test. Data represent mean±SEM. (FIG. 24C) Chi-square test. […], *p<0.01, *p<0.05.
Immunoprecipitation and western blot: For in vivo immunoprecipitation (IP) experiments, cultured cells were washed in cold PBS and lysed in lysis buffer (20 mM Tris pH 7.4, 0.15 M NaCl, 1 mM EDTA, 1 mM EGTA, 1% Tx-100, 0.0025 M Na2P2O7, 1 mM β-glycerolphosphate, 1 mM Na3VO4, and 1 mM NaF) with an EDTA-free protease inhibitor mixture (Roche Applied Science) and PMSF. Cell lysates were then incubated on ice for 10 min, centrifuged, and precleared by incubating with protein A/G beads (Santa Cruz Biotechnology) for 1 h at 4° C. For IP bead preparation, 30 μl of protein A/G beads were incubated with 5 μg of antibodies for 2 h at 4° C. […]

B1: murine SND1 R255E: shRNA-resistant murine SND1 mutant R255E (protein, UniProt Q78PY7 2-910, looked up, variant R255E)
Staphylococcal nuclease …: ASSAQSSGSSGGPAVPTVQRGIVKMVLSGCAIIVRGQPRGGPPPERQINLSNIRAGNLARRAAATQPDGKDTPDEPWAFPAREFLRKKLIGKEVCFTIENKTPQGREYGMIYLGKDTNGENIAESLVAEGLATRREGMRANNPEQNRLSECEEQAKASKKGMWSEGNGSHTIRDLKYTIENPRHFVDSHHQKPVNAIIEHVRDGSVVRALLLPGHHLVTVMLSGIKCPTFRRETDGSETPEPFAAEAKFFTESELLQRDVQIILESCHNQNLLGTILHPNGNITELLLKEGFARCVDWSIAVYTRGAEKLRAAERFAKERRLRIWRDYVPPTANLDQKDKQFVAKVMQVLNADAIVVKLNSGDYKTIHLSSIRPPRLEGDNIQDKNKKLRPLYDIPYMFEAREFLRKKLIGKKVNVTVDYIRPASPATETVPAFSERTCATVTIGGINIAEALVSKGLATVIRYRQDDDQRSSHYDELLAAEARAIKNGKGLHSKKEVPIHRVADISGDTQKAKQFLPFLQRAGRSEAVVEYVFSGSRLKLYLPKETCLITFLLAGIECPRGARNLPGLVQEGEPFSEEATLFTKELVLQREVEVEVESMDKAGNFIGWLHMDGANLSVLLVEQALSKVHFTAERSAYYKPLLSAEEAAKQRKEKVWAHYEERPVEEVMPVLEEKERSASYKPVFVTEITDDLHFYVQDVETGTQLEKLMENMRNDISSHPPVEGSYAPRRGEFCIAKFVDGEWYRARVEKVESPAKVHVFYIDYGNREILPSTRLGTLPPAFSTRVLPAQATEYAFAFIQVPQDEDARTDAVDSVVRDIQNTQCLLNVEHLSASCPHVTLQFADSKGDVGLGLVKEGLVMVEVRKEKQFQKVITEYLNAQESAKSARLNLWRYGDFRADDADEFGYSR
modifications: shRNA-resistant
Q: B1 was tested. Which “interaction of murine SND1 mutants with MTDH” value did it give?
A: nearly completely abolished the interaction with MTDH
